One block for each molecule: values may come before it.
What was measured:
SPA1-Kin = molecular target: T1, SPA1-Kin (Arabidopsis thaliana, UniProt Q9SYX2, R517E, form not given); assay: in vitro autophosphorylation assay, autoradiogram; type: biochemical; conditions: 10 mM MgCl2, pH 7.5, 28 °C; labelled compound (gamma-32P)
T1 sequence (Q9SYX2 1-545 R517E limits assumed): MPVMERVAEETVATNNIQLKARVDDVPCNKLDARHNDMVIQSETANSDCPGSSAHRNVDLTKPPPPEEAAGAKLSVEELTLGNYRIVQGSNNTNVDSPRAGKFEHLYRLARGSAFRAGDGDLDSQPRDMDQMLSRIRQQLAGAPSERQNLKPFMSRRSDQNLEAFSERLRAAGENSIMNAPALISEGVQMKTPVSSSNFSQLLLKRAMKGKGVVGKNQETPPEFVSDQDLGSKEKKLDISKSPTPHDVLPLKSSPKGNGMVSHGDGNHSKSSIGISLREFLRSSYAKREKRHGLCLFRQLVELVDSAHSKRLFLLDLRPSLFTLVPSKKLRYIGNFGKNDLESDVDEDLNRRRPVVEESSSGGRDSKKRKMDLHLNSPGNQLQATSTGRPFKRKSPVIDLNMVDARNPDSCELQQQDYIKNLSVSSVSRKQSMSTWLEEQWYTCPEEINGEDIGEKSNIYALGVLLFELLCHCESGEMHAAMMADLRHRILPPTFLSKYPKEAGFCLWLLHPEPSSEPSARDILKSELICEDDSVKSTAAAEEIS

[1] = molecular target: T2, phyB-GFP FL purified from yeast (Saccharomyces cerevisiae) (Arabidopsis, UniProt P14713 1-1172, phycocyanobilin (PCB) chromophore assembled); assay: pull-down; in vitro: phytochromes purified from yeast (S. cerevisiae) and GST-PIF1; light-dependent; conditions: both partners purified
T2 construct: not shown: GFP, C-terminal, kept
T2 sequence (looked up): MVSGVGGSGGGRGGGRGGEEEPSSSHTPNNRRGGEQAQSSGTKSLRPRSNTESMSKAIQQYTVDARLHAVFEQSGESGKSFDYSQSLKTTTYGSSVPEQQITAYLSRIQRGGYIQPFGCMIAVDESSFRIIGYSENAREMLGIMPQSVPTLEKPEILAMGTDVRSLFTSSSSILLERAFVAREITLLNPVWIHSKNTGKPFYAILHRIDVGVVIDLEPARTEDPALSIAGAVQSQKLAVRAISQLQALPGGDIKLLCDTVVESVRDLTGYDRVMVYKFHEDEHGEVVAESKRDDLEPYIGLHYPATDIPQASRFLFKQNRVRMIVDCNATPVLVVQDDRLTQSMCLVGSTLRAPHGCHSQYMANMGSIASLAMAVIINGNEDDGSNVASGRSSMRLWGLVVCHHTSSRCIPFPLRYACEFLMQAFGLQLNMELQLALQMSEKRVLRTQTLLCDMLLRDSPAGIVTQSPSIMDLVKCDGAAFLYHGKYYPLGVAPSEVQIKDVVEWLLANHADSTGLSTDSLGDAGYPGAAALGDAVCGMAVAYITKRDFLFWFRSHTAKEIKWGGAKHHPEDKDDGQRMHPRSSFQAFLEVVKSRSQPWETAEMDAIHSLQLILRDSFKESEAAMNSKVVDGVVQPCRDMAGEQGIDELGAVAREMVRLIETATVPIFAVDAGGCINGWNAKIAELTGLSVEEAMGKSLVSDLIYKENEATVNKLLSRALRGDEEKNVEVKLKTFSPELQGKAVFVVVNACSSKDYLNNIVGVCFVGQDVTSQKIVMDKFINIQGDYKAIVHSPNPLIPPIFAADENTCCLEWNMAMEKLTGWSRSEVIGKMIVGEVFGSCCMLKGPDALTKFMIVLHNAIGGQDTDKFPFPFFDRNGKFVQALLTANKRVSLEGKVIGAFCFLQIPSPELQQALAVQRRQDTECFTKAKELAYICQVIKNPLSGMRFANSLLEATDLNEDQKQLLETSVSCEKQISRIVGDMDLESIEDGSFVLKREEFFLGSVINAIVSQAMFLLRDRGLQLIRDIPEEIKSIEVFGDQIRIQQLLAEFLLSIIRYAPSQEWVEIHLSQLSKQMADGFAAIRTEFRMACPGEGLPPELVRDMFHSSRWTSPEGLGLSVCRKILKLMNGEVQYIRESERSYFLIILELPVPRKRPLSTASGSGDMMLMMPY

[2] = molecular target: T3, strep-tagged full-length SPA1 (SUPPRESSOR OF PHYA-105 1) (Arabidopsis, UniProt Q9SYX2 1-1029); assay: pull-down; 2 µg GST-PIF1 on GST agarose beads, 1 µg SPA1 or mSPA1; 50 mM Tris pH 7.5, 150 mM NaCl, 1 mM EDTA, 0.1% Tergitol NP-40, 0.5 mM DTT; 2 h at 4 °C; Coomassie staining; conditions: both partners purified
T3 construct: 3x Flag was cloned into the SnaBI site of pPIC3.5K SPA1-strep; also called SPA1-strep; wild type SPA1; source: Pichia pastoris GS115, purified (Strep-Tactin Sepharose); not shown: Strep tag, C-terminal, kept
T3 sequence (looked up): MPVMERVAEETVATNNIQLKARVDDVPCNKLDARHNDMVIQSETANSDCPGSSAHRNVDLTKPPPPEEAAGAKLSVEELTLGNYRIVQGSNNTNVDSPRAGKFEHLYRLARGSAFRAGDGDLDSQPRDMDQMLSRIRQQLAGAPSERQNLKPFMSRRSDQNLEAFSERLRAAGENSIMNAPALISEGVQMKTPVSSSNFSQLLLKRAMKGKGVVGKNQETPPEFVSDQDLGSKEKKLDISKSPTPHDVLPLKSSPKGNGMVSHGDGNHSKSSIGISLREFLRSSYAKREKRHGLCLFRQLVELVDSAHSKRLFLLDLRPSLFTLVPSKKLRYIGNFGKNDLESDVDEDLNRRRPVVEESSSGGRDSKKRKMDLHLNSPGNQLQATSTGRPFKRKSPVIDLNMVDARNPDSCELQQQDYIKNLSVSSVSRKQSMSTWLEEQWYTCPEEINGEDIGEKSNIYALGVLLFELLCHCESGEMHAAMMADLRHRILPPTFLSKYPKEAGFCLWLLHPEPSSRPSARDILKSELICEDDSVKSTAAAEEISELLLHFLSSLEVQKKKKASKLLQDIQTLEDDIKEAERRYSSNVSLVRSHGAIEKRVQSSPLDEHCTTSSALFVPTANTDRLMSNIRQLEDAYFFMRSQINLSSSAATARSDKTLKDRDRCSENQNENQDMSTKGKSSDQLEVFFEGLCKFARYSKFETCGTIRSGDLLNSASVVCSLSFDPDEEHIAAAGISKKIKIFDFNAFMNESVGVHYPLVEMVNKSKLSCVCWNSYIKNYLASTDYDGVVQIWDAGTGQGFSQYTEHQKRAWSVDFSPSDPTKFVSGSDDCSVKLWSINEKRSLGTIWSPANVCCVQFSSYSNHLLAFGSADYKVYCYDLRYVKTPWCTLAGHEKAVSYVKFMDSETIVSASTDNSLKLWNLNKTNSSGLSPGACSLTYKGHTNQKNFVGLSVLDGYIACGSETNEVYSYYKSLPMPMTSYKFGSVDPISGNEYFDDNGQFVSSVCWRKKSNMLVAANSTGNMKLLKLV

Molecule: Nc1ncnc2c1ncn2[C@@H]1O[C@H](COP(=O)(O)OP(=O)(O)OP(=O)(O)O)[C@@H](O)[C@H]1O [ATP]
- in vitro autophosphorylation assay, autoradiogram (SPA1-Kin): significantly reduced auto-phosphorylation activity for the SPA1-Kin^R517E (mSPA1) mutant

- binding result [1]: binds
- binding result [2]: binds
B1: GST-PIF1-strep (natural protein, Arabidopsis, UniProt Q8GZM7 1-478, looked up)
chain: MHHFVPDFDTDDDYVNNHNSSLNHLPRKSITTMGEDDDLMELLWQNGQVVVQNQRLHTKKPSSSPPKLLPSMDPQQQPSSDQNLFIQEDEMTSWLHYPLRDDDFCSDLLFSAAPTATATATVSQVTAARPPVSSTNESRPPVRNFMNFSRLRGDFNNGRGGESGPLLSKAVVRESTQVSPSATPSAAASESGLTRRTDGTDSSAVAGGGAYNRKGKAVAMTAPAIEITGTSSSVVSKSEIEPEKTNVDDRKRKEREATTTDETESRSEETKQARVSTTSTKRSRAAEVHNLSERKRRDRINERMKALQELIPRCNKSDKASMLDEAIEYMKSLQLQIQMMSMGCGMMPMMYPGMQQYMPHMAMGMGMNQPIPPPSFMPFPNMLAAQRPLPTQTHMAGSGPQYPVHASDPSRVFVPNQQYDPTSGQPQYPAGYTDPYQQFRGLHPTQPPQFQNQATSYPSSSRVSSSKESEDHGNHTTG
notes: source: E. coli BL21(DE3), purified (Strep-Tactin Sepharose); not shown: GST, N-terminal, kept; Strep tag, C-terminal, kept
